Results as given in PMC11170914, “A distinct dimer configuration of a diatom Get3 forming a tetrameric complex with its tail-anchored membrane cargo” (BMC Biology, 2024).

B1: Get3 from zebra fish (recombinant Get3/TA complex) (natural protein)
chain: not shown
notes: Get3 of zebra fish (Danio rerio); also called zebra fish Get3; source: recombinant, purified as Get3/TA complex
B2: Get3 from yeast (recombinant Get3/TA complex) (natural protein, UniProt Q12154 1-354, looked up)
chain: MDLTVEPNLHSLITSTTHKWIFVGGKGGVGKTTSSCSIAIQMALSQPNKQFLLISTDPAHNLSDAFGEKFGKDARKVTGMNNLSCMEIDPSAALKDMNDMAVSRANNNGSDGQGDDLGSLLQGGALADLTGSIPGIDEALSFMEVMKHIKRQEQGEGETFDTVIFDTAPTGHTLRFLQLPNTLSKLLEKFGEITNKLGPMLNSFMGAGNVDISGKLNELKANVETIRQQFTDPDLTTFVCVCISEFLSLYETERLIQELISYDMDVNSIIVNQLLFAENDQEHNCKRCQARWKMQKKYLDQIDELYEDFHVVKMPLCAGEIRGLNNLTKFSQFLNKEYNPITDGKVIYELEDKE
notes: Get3 of yeast; also called yeast Get3; source: recombinant, purified as Get3/TA complex

Biological target: the molecule itself
Test: SEC; recombinant Get3/TA complex from yeast or zebra fish; SEC and SDS-PAGE (Fig. S10); conditions not shown

Row | Protein | stoichiometry N
1 | B1 | 2
2 | B2 | 2
